Measurements taken from the supplement of paper PMC12636428.

Test system: Saccharomyces cerevisiae
Test: transcriptional activation domain activity (GFP:mCherry ratio, weighted mean of sorted bins, harmonized to initial dataset scale) (arbitrary fluorescence ratio units); higher = stronger transcriptional activation
Conditions: beta-estradiol 1 µM; induction time 4 h
Method in brief: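 Each value is an activation activity: the read-weighted mean of bin median fluorescence, averaged across barcodes, then mapped linearly to the initial dataset scale. The tiles, fused to an estradiol-inducible synthetic transcription factor, sat at the yeast URA3 locus in GFP-reporter diploids. Cells spent 4 hours at 30 °C in SC with 1 uM beta-estradiol before sorting into 8 GFP:mCherry bins, and tiles below 50 reads were removed.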

Sequence | transcriptional activation domain activity
TATARVRAVGENQKLEIVLGESDGTEEECQCGRRNKNANVKKYVQGVRAGIHY | 35000
GLPVVLVLVFFGLPTTGFLVFFPADFLVVFFAFLATFLKVVFKGFFAFLLFFP | 74300
AVAPASTPVATEASPAGAPDAKGKKKEKAAAGANADAAGGKKGKGGAQAAPAT | 49500
DMLISFGLDHPSNREDDLDKLCNMTRDVQAIFSQYLKGEESKRSLEDFLSTSN | 67500
MLSYGSFFFLIFFVFFVISLGFLLSCSWMLYSHIWCCDGPRIFFLFVNLLFVS | 38300
NCLLHIMRFLPFLELKQFIIAYRRFDIYACAESAIHLQYLDFFNFWMDPSFLL | 49700
ALKILVLLVFIMDTLHTYGIISYQWGLFLYCHHNASFACLSDLPWEVFMCVAL | 41200
YAEWLLQPEQHNGTWVADVLWPAINLDLQWISQHWNESSWDLWWSPVWAGSYW | 66400
MMFETHFWSLSSLLLLFFLSFFFFLYIWGSRFFFFQFPFPFPFPFPFFFSIFF | 53800
GDERSRKAGEKETSRGGRGAGGGRRETGRKEKPGGKAGKGGRTRAGGRGREKK | 21800
SPSSQTTSSTTVVLVFGSDEKRVKEVGDGLKSKLAVKGGGKGTRWSGKYTGVW | 32000
QNLFGYLERSLNRSTKLRATGMLKEGMVRIFIQKIEGSPFEVTMQFARKFFTA | 35900
HLRNDTRLIPGIKYLQMVLGRVRYCREIIAILARNGHRLPKGMLSTLVRLWLL | 34800
WSSYTGPILSPGFSDLDWAPDPSNTTSGNLFIDLWPTWLSWMPDSTVLFTPWG | 49900
ALYFMVIFTSHIIYTFTLILGRPIVQVIPALYGLLSFLADSDLLFILPLCRMG | 55000
GVDPATKEKKVPSDVLEEPPTLKESLQVLYKYCILCFNLNRKRVVLQFIASFL | 73300
ESFKPAPAPKKEEAPKEEAKPAEEGAKAEEAPKEGENKEEAKPAEEPKRRSAS | 28400
GVCLKVGITKPKKPNSAERKTARVRLSTGRVVTAYIPGEGHNVQQHSVVLVRG | 39500
WIQCTIPGYVSNFAYGLASGFTVTLNTAVLMEIVFHSKSYRILILSLFTTLYV | 61400
EGKEERGKGGEGEGGEGGEGERRDGKREGREGNGNRGGTEGKGERRKRKSQRE | 28700
MTQLYPFFLLFFAGLTMLLLLNHTFLPRVSVKSVKSLFRCNVRGFGTFFLFFL | 43800

Sequence | transcriptional activation domain activity
CVCVGVGIGVGGLVLPLLFFLSFTSFSSLVTFLFSLSFPFSFFLFFLSFFLGL | 46000
WYGFLVTWGLLVLFIICFYFFISVSCCAFCVLFSSTWSFGRLFLLTFPLILLL | 41700
YQKLLVDARQAAEMFFKMLHYELWTHLLERLLRLRQMCNHWSLCKKKGMENCR | 54300
SRPPRPSASSSTTPRARSRSTARPSRARWPRPRCPSSGGCTRACRTRRCTRRM | 45300
ALNDPSILETLSPFFQPFGVDVAHLPMTNPPIFQSSLPGCDEPIRRRRISISN | 81300
YLFLFYLTILVWFGLFYFIQFFFYLSFHFLFCFVLLLFFTFVFWGVFIFCFFF | 45500
MPILMQFCFIMALNGICNSMHLYAAYNLRTHVLARVFWSILWLLLRSLCSAGW | 70700
LKQMAGRDFEDILQCIMPVFEGLLPPPHDDLVMSLLFTLAFWHALAKLRLHTE | 56300
ISLLVLGCWIPFIILMEGYLQSLTFESFPYPGLYCFTSQGSHIIYLCWVLIAI | 60200
PSTSPTPSSACAPSAASSTRSPPSTPARGGATSGTCCASACAASTPCVTRYTG | 11500
MKTPPPQLGFFVGVLVLYAFFFIFLFFYFLFYGDIHLKQEDIIYVWNTYWAIW | 20200
QSLENQTTETIDVSPDKHRLLIGRGGETRRAIESKFKVQLDIPKQTATGAARN | 64100
MHSVTAALRSLSLAGRRSLSTSAPRWEQAAAEAVASTSTWTPQTQRTGVLARK | 14900
TEEVVEPAAEKPAKKSRKRKSDVAEAVAEEKPETPVKPKKAKKEVAKAEEVVA | 20400
AFLLFLLYLTFFCWVCFATSATWVWSEILSDNQYTESFMPINDVLLAVLSGII | 53100
DEDRRKRRRSRSRSPDREEESSRRRRDRSRSRSKDADRKKRKRDKSEERKARK | 30900
KMEESKKRGTKRKSALASDSEEEEEVKPKPIAKPAKPAAKAESSVHVRKGVVL | 17700
RKLRDVHVPEVPLPLGPDGKADRKKSSLIMVHYVLMHSREVILLCLHRSFFAQ | 65300
MLRVPGSWFGMLFMGLLVSRERLSLLASLLFFVQVIFIRLLVVFWMICGGQIP | 31400
AHVGVGISGVEGLQAARSADIAISQFRYLKKLLLVHGAWSYRRLSKLILYSFY | 82600
QGASAGVSPIFKKEKYTLKWKRVKEFNLIFVAVYQSLLHLGWIDRLLENISTI | 67900

Sequence | transcriptional activation domain activity
MSWPDRGYYYCLMVISLLSAKLMHLFSHFTALPLILFLLYLPTFLLLDLLVVF | 60500
QGIGLMYLVLVMLCLASLLITNLHFLTVYRSTLIHSYMSQLIVFSFLLPLSLV | 44700
MGYQPLFLCFVLSSPCLLLFPVLHILQPASSFSLLCLELFVRWVTYLLLLFSS | 71800
TGYKKKKLGHPSEKVVERHASCEPGTRLYSQKLFGRYVLRLLFVVAYMFVKSF | 34800
IWCRKCNLGSILYVLARYGTLNCLLVSSLSLVTGFVVNMIFHIILGLLLARAY | 65100
TSLVVENGNGNGSGRGRKKRGRDGGGGGRGGGGGRGGGGEEDGLVGGAGAGGG | 25000
VARKLLNTIHPALGPLHACSVLRKIRVLICMAGEHATSTYPLEMLLHSLRVFV | 44700
SASKPAAVTDADEAARPVKKPARPSPGDEDKPEKKEESSRKIETQQPKKAAAQ | 25500
MAKLRELMKKLEEEVVGEDGEKRMVQPTIMQEPFRSFFRTAVSVYLPNVLGAK | 52600
RRGSKGKQRASGNRGPGGSGGSRGWGQRTASHGKAGKGTGKRSGSNSGSHGES | 37100
LLNIGNGGVPKNTNVHLGAQFFYLSFLEFILSCLTLCSRSWAWFHVVCVVHLR | 62300
VSRIRAAVEAQLNHPVNHVLIQHYRSGKDYISEHSDKTIDVVAGSKIVNISIG | 37700
FNLYLLSWLHLLSSKSSSLGNSSAWWIRPVEITMMSCYWYIFGYLLLWCTLPT | 38200
DRPRDRDSSRSRRDVSSSRRDRDGEDKESAGDRRDDRKPARDDRRTREDHRRE | 28100
LNWYWLATTMYFLYGESVIYYFKHIVLVDKVLLPLATHHRFISFILYVFGFVF | 71900
SGADEFDVGASIEPTFATPRLTRTSETGTSESTSRRPSERSRSRARVLGLPVG | 38500
RRVLVLVMEELGYRTDHAFRIAHRLDRLYQMALTRFLTLTAGVIDLMERIRMS | 58400
LVLKMILDRLAEPGDSLLNIDFSTLIHQFAKYLNKVPSNYVVLRIKIKICHLV | 61000
RRWTRSKWLLLCTYGMMFCIGLTMLLGCLLTWFRGYLRAEVITVGFKRILIIA | 47500
RRRRKARSARLKKAEKTAAAVGQEAKPKAENAEGASVPPRRKRRRARSRKPKK | 28100
AGQVVQETVHRAGDALKETAESAAQHVFSPRRRRRRRRSSRTGSERAVVCCSR | 62000

Sequence | transcriptional activation domain activity
KSRKRAKKSPEESEVESKHRRRRSRKAVEDENDENSHCKRTKKVAGAESEKAV | 19700
VVEALRLPLKPIQLLSKLFLRRLYEQDQLEEIRGIAKQIKIELYLLVALNVLL | 54000
EKLVEEVQETPKDKKKRKRDVEAEDVEASAKSEKKLKKKKSKSSAEEAAPADA | 30900
SFVRDVGFFIVSASFSLVFLWDGKLYFWECVTMVGFYVFYVIFVMAWHWWLGR | 43100
MAAPPFLWTLFFFLFSILLLLSHTYFFLLLLACFFRFWFFYCSFYFSFDFLSS | 37900
MPHTHLIFESCFFIVFSPNDLLTTDYLFFLPFPFPFPFPFLFPFPFLFPFLFL | 63100
MFTRLLRYLHCSHFCFAIATRFRGWIGLFSPLYVSCFSQPFRFRYLGCLLFLF | 52800
PQPAAGKRKRGRPRTSLPESEPRSEDRRSNTPSAAPQQSAKKSRGRPPKAASK | 38800
FGFFSFSSFFFFLVLLYLFSFFFFLDFLSFSFLFPDIHSRIVINHNLVGNFFF | 44600
PAPSAAPAPAKEEDDDDEKEEAGGKADAKKKKKKKGKKDDEPAPAAAPAAAGK | 29400
VMLSFFICRPILRLLHVFHISSPIYLYLPFVPLHLLIYPSFLIDVGLLSMVLA | 65200
FLMLVCLEVIGRGLTNKVVLMPSGLYCIPNIIHPKGFQLALEIIFLVLFIPCP | 39600
MSLFSPCGETPLFLFPLFALTGLAPVLPPGSPLFFYLTLPLSFSFFHFFIFFF | 79500
GPYDDIFMGGIYGIKHLYELEDGLTILWHDGIHFSPNRVFRLLIAFLLRVVGT | 61900
ILAGCCLGYACNKWGSITVFKYYGIPWLFLNHWFVMITYLHHTDPTIPHYRGK | 73500
MFCLRSWIPVLFFLLRTNASPVYLILSISATYFLNRPCVYCSLLLFILVVALF | 57600
LAQAFFASMPVVCFLTFGLFVLFALVAGFLFFTLFWVGLAFCVLVPVLVVTFC | 49000
NGFCYSAITGGSIVLLLPGWYVFFYSLELQSRSMLCGSIRLGWAIIYAFFLGF | 58900
HSGVLRDVHVVFQDRSFCARLAEQIGRRLRMIYSNWRETCCMEMLITLSLRLF | 73200
TSIFGSNNNTGGTMFGSNTNTSSPFGGGGTSNTSIFARRFALSLALLRSPTSY | 30900
